# Measurements published in patent US20170267986A1, “GENERATION OF MANNOSE-6-PHOSPHATE CONTAINING RECOMBINANT ALPHA-N-ACETYL GLUCOSAMINIDASE” (SHIRE HUMAN GENETIC THERAPIES, INC., priority 2014, published 2017).
# T1: Recombinant human Naglu (rhNaglu)
# T1 chain: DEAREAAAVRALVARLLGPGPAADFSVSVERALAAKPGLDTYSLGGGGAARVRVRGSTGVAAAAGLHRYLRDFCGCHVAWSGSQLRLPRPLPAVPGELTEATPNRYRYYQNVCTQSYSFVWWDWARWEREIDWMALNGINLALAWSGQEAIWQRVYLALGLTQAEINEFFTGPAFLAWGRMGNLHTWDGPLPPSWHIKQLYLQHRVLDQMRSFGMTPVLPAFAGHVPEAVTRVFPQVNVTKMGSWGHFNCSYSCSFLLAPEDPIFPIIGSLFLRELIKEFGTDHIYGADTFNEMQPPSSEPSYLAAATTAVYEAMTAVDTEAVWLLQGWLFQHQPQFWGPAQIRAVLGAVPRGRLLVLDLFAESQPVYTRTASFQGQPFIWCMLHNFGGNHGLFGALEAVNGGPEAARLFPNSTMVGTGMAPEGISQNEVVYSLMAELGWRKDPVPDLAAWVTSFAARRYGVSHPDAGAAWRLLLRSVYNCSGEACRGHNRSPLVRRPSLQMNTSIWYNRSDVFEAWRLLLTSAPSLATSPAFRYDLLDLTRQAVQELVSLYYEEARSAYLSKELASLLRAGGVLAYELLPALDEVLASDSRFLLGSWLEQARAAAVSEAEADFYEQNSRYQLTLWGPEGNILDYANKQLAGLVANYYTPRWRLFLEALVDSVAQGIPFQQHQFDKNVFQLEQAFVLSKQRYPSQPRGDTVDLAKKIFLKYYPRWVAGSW
# T2: Naglu-Kif, a high-mannose-containing recombinant human Naglu (before sGNPT modification)
# T2 chain: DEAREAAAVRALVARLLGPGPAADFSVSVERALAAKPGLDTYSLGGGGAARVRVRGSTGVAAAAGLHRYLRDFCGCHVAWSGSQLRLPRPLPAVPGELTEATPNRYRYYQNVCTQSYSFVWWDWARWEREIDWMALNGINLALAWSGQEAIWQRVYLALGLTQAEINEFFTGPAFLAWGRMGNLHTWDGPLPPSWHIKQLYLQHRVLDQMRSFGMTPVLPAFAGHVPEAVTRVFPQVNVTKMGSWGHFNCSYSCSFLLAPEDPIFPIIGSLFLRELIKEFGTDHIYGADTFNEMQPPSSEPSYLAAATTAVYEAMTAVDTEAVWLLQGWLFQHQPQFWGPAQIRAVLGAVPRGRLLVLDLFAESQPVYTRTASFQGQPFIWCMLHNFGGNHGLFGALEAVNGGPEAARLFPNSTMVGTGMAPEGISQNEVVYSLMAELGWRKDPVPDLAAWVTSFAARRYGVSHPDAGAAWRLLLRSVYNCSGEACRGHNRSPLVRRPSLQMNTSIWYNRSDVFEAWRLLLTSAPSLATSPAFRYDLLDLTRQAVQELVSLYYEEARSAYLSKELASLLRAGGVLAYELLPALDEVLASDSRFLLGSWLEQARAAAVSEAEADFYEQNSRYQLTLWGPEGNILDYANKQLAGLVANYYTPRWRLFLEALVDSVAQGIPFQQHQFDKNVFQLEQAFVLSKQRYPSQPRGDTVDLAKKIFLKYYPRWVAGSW
# T3: rhNaglu (Homo sapiens, UniProt P54802)
# T3 construct: The N-terminal 23 amino acids are cleaved as the precursor protein enters the endoplasmic reticulum, resulting in a mature form; made in house; host or cells: human fibrosarcoma HT1080 cell clone over-expressing rhNaglu
# T3 sequence (P54802 24-743): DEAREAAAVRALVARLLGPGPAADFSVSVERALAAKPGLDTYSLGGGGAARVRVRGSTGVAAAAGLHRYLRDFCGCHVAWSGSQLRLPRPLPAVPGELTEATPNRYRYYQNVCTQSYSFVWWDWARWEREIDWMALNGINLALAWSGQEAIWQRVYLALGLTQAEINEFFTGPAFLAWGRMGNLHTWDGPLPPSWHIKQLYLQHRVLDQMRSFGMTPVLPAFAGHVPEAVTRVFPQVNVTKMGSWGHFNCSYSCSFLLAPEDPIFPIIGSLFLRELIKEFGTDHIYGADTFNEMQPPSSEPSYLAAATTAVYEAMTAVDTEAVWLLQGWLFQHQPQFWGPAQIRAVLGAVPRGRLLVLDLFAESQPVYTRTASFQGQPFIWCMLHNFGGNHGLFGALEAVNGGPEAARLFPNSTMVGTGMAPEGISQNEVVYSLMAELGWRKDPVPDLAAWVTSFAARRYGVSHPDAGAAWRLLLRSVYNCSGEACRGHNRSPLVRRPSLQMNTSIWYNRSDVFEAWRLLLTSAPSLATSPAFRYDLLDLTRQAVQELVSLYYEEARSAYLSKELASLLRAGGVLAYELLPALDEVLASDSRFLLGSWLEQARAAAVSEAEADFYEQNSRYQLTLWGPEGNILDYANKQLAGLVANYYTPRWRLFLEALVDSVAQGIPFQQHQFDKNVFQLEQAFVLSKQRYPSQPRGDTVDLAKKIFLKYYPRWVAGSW
# B1: Soluble human N-acetylglucosamine-1-phosphotransferase (sGNPT), HPC4 tagged (protein)
# chain: DEDQVDPRLIDGKWSRDQYHVLFDSYRDNIAGKSFQNRLCLPMPIDVVYTWVNGTDLELLKELQQVREQMEEEQKAMREILGKNTTEPTKKSEKQLECLLTHCIKVPMLVLDPALPANITLKDLPSLYPSFHSASDIFNVAKPKNPSTNVSVVVFDSTKDVEDAHSGLLKGNSRQTVWRGYLTTDKEVPGLVLMQDLAFLSGFPPTFKETNQLKTKLPENLSSKVKLLQLYSEASVALLKLNNPKDFQELNKQTKKNMTIDGKELTISPAYLLWDLSAISQSKQDEDISASRFEDNEELRYSLRSIERHAPWVRNIFIVTNGQIPSWLNLDNPRVTIVTHQDVFRNLSHLPTFSSPAIESHIHRIEGLSQKFIYLNDDVMFGKDVWPDDFYSHSKGQKVYLTWPVPNCAEGCPGSWIKDGYCDKACNNSACDWDGGDCSGNSGGSRYIAGGGGTGSIGVGQPWQFGGGINSVSYCNQGCANSWLADKFCDQACNVLSCGFDAGDCGQDHFHELYKVILLPNQTHYIIPKGECLPYFSFAEVAKRGVEGAYSDNPIIRHASIANKWKTIHLIMHSGMNATTIHFNLTFQNTNDEEFKMQITVEVDTREGPKLNSTAQKGYENLVSPITLLPEAEILFEDIPKEKRFPKFKRHDVNSTRRAQEEVKIPLVNISLLPKDAQLSLNTLDLQLEHGDITLKGYNLSKSALLRSFLMNSQHAKIKNQAIITDETNDSLVAPQEKQVHKSILPNSLGVSERLQRLTFPAVSVKVNGHDQGQNPPLDLETTARFRVETHTQKTIGGNVTKEKPPSLIVPLESQMTKEKKITGKEKENSRMEENAENHIGVTEVLLGRKLQHYTDSYLGFLPWEKKKYFQDLLDEEESLKTQLAYFTDSKNRARYKRDTFADSLRYVNKILNSKFGFTSRKVPAHMPHMIDRIVMQELQDMFPEEFDKTSFHKVRHSEDMQFAFSYFYYLMSAVQPLNISQVFDEVDTDQSGVLSDREIRTLATRIHELPLSLQDLTGLEHMLINCSKMLPADITQLNNIPPTQESYYDPNLPPVTKSLVTNCKPVTDKIHKAYKDKNKYRFEIMGEEEIAFKMIRTNVSHVVGQLDDIRKNPRKFVCLNDNIDHNHKDAQTVKAVLRDFYESMFPIPSQFELPREYRNRFLHMHELQEWRAYRDKL
# B2: rhNaglu: recombinant human alpha-N-acetyl-glucosaminidase purified from human fibrosarcoma HT1080 cells engineered to over-express it (protein)
# chain: DEAREAAAVRALVARLLGPGPAADFSVSVERALAAKPGLDTYSLGGGGAARVRVRGSTGVAAAAGLHRYLRDFCGCHVAWSGSQLRLPRPLPAVPGELTEATPNRYRYYQNVCTQSYSFVWWDWARWEREIDWMALNGINLALAWSGQEAIWQRVYLALGLTQAEINEFFTGPAFLAWGRMGNLHTWDGPLPPSWHIKQLYLQHRVLDQMRSFGMTPVLPAFAGHVPEAVTRVFPQVNVTKMGSWGHFNCSYSCSFLLAPEDPIFPIIGSLFLRELIKEFGTDHIYGADTFNEMQPPSSEPSYLAAATTAVYEAMTAVDTEAVWLLQGWLFQHQPQFWGPAQIRAVLGAVPRGRLLVLDLFAESQPVYTRTASFQGQPFIWCMLHNFGGNHGLFGALEAVNGGPEAARLFPNSTMVGTGMAPEGISQNEVVYSLMAELGWRKDPVPDLAAWVTSFAARRYGVSHPDAGAAWRLLLRSVYNCSGEACRGHNRSPLVRRPSLQMNTSIWYNRSDVFEAWRLLLTSAPSLATSPAFRYDLLDLTRQAVQELVSLYYEEARSAYLSKELASLLRAGGVLAYELLPALDEVLASDSRFLLGSWLEQARAAAVSEAEADFYEQNSRYQLTLWGPEGNILDYANKQLAGLVANYYTPRWRLFLEALVDSVAQGIPFQQHQFDKNVFQLEQAFVLSKQRYPSQPRGDTVDLAKKIFLKYYPRWVAGSW
# What was measured:
# [1] = target: T1, Recombinant human Naglu (rhNaglu)
# [2] = target: T2, Naglu-Kif, a high-mannose-containing …
# [3] = target: T4, CI-M6PR (Homo sapiens, UniProt P11717); assay: Plate based sCI-M6PR binding assay (ELISA); conditions: treated with sGNPT under the same conditions as Naglu-Kif
# T4 construct: the secreted sCI-M6PR was purified from the tissue culture medium; made in house
# Experimental: (1) Generation of sCI-M6PR (soluble CI-M6PR)—Full length M6PR was expressed in genetically modified tissue culture cells, and the secreted sCI-M6PR was purified from the tissue culture medium using an aminophenyl-M6P conjugated resin (Beljaars et al., 1999). N-terminal sequencing and LC/MS/MS analysis of the obtained protein confirmed the amino acid sequence of the sCI-M6PR, and MALDI analysis confirmed that its molecular mass was 279,492 Da.
# 100 μl of sCI-M6PR(2.5 μg/ml) in DPBS were coated on MaxiSorp® Nunc-Immuno flat-bottom 96-well plates (Thermo Fisher Scientific, Inc., Sunnyvale, Calif.). After incubation for 1 hour at 37° C., the plates was washed with ELISA wash buffer (0.1% Tween-20 in DPBS). sCI-M6PR coated wells were blocked with 300 μl ELISA blocking buffer (DPBS, 2% BSA, 0.05% Tween 20) at 37° C. for 1 hour. Appropriate dilutions of sGNPT-modified Naglu-Kif (and rhNaglu as control) were made in blocking buffer and added to the wells. After 1 hour incubation at 37° C., the plates were washed with ELISA wash buffer, and 100 μl of HRP-conjugated rabbit anti-Naglu polyclonal antibody #2957 diluted in blocking buffer were added. After 1 hour incubation at 37° C., the plates was washed again with ELISA wash buffer. The ELISA was developed using TMB peroxidase substrate solution (KPL, Inc., Gaithersburg, Mass.) by following the manufacturer's protocol.
# sGNPT transfers the phospho-GlcNAc group from UDP-GlcNAc to mannose sugar, and the resulting mannose-6-phosphate-GlcNAc is called the Capped-M6P. During the normal intracellular glycosylation process, the decapping enzyme (N-acetylglucosamine 1-phosphodiester α-N-acetyglucosaminidase) removes the GlcNAc from the Capped-M6P, to generate M6P. But without decapping, the Capped-M6P can also bind to CI-M6PR. Capped-M6P binds to domain 5 of CI-M6PR rather than to domain 3 or 9, as M6P does (Bohnsack et al. 2009). The amount of Capped-M6P on Naglu-Kif can be indirectly evaluated using a CI-M6PR plate binding assay. In this binding assay the affinity with which Naglu-Kif bound to CI-M6PR increased in proportion to the amount of sGNPT used (35 μg, 70 μg and 140 (corresponding to about 4.2 μM) (green, red and empty circle in FIG. 8, respectively)) to modify Naglu-Kif and thus the extent of Capped-M6P found on Naglu-Kif (FIG. 8). […] These binding reactions were repeated in two different buffer systems, i.e., in a sodium acetate buffer (40 mM NaAc pH 6.5, 10 mM MnCl2, 10 mM MgCl2) and in a Tris buffer (50 mM Tris pH 7.4, 10 mM MnCl2, 10 mM MgCl2), which gave similar results. Contrary to Naglu-Kif, rhNaglu was not phosphorylated by sGNPT under the same conditions due to the lack of high-mannose glycans.
# [4] = target: T3, rhNaglu; assay: Naglu substrate analysis: hydrolysis of UDP-sugars by rhNaglu, PAD-HPLC; format: biochemical; conditions: 0.8 mM UDP-GlcNAc, 37° C., 1 hour
# Experimental: Recombinant human Naglu was co-incubated with uridine diphosphate N-acetylglucosamine (UDP-GlcNAc) or uridine diphosphate N-acetyl galactosamine (UDP-GalNAc). UDP-GlcNAc, GlcNAc (N-acetylglucosamine) and UDP-GalNAc were detected using PAD-HPLC (Pulsed Amperometric Detection-High Pressure Liquid Chromatography) that was modified after Chavaroche et al. 2011.
# Recombinant human Naglu was dialyzed into Tris buffer (40 mM Tris pH 7.15, 100 mM NaCl, 4 mM MgCl2, and 4 mM MnCl2) and concentrated with VivaSpin® sample concentrators having a 30 kDa cut-off (Viva Products, Inc., Littleton, Mass.). […]
# Samples were then subjected to centrifugation at 10,000 rpm, and the resulting supernatants were loaded on PA10 columns and detected by PAD-HPLC (Pulsed Amperometric Detection-High Pressure Liquid Chromatography) (Dionex ICS-3000 Ion Chromatography System (Thermo Fisher Scientific, Inc., Sunnyvale, Calif.)). […] The peak areas for the eluted UDP-GlcNAc were measured, and the reductions of the area under the curve (AUC) in response to increased concentrations of rhNaglu were determined (FIG. 1A). A new peak at 10.7 minutes was detected on the chromatograms of samples treated with concentrations of rhNaglu of 23.4 μg/ml and above. […] The peak areas for the eluted GlcNAc were measured, and the increases of the AUC in response to increased concentrations of rhNaglu were determined (FIG. 1B). […]
molecule,measurement,setting,value
B1,in vitro phosphorylation by sGNPT,[1],rhNaglu was not phosphorylated by sGNPT under the same conditions due to the lack of high-mannose glycans
same,"pmol M6P/pmol Naglu Kif (M6P monosaccharide quantitation by PAD-HPLC after in vitro phosphorylation; +70 ug GNPT, 50 mM Tris pH 7.4, 10 mM MnCl2, 10 mM MgCl2) (pmol M6P/pmol Naglu Kif)",[2],1.45
same,"pmol M6P/pmol Naglu Kif (M6P monosaccharide quantitation by PAD-HPLC after in vitro phosphorylation; +70 ug GNPT, 50 mM sodium acetate pH 6.5, 20 mM MnCl2) (pmol M6P/pmol Naglu Kif)",[2],0.12
same,"pmol M6P/pmol Naglu Kif (M6P monosaccharide quantitation by PAD-HPLC after in vitro phosphorylation; +140 ug GNPT, 50 mM sodium acetate pH 6.5, 20 mM MnCl2) (pmol M6P/pmol Naglu Kif)",[2],0.64
B2,binding to CI-M6PR,[3],did not bind
same,minimum rhNaglu concentration required for detection of hydrolysis of UDP-GlcNAc,[4],23.4 µg/mL
